Reference: PMC11476584

B1: Lon protease (LONP1) (enzyme)
chain: FWEASSRGGGAFSGGEDASEGGAEEGAGGAGGSAGAGEGPVITALTPMTIPDVFPHLPLIAITRNPVFPRFIKIIEVKNKKLVELLRRKVRLAQPYVGVFLKRDDSNESDVVESLDEIYHTGTFAQIHEMQDLGDKLRMIVMGHRRVHISRQLEVEPEEPEAENKHKPRRKSKRGKKEAEDELSARHPAELAMEPTPELPAEVLMVEVENVVHEDFQVTEEVKALTAEIVKTIRDIIALNPLYRESVLQMMQAGQRVVDNPIYLSDMGAALTGAESHELQDVLEETNIPKRLYKALSLLKKEFELSKLQQRLGREVEEKIKQTHRKYLLQEQLKIIKKELGLEKDDKDAIEEKFRERLKELVVPKHVMDVVDEELSKLGLLDNHSSEFNVTRNYLDWLTSIPWGKYSNENLDLARAQAVLEEDHYGMEDVKKRILEFIAVSQLRGSTQGKILCFYGPPGVGKTSIARSIARALNREYFRFSVGGMTDVAEIKGHRRTYVGAMPGKIIQCLKKTKTENPLILIDEVDKIGRGYQGDPSSALLELLDPEQNANFLDHYLDVPVDLSKVLFICTANVTDTIPEPLRDRMEMINVSGYVAQEKLAIAERYLVPQARALCGLDESKAKLSSDVLTLLIKQYCRESGVRNLQKQVEKVLRKSAYKIVSGEAESVEVTPENLQDFVGKPVFTVERMYDVTPPGVVMGLAWTAMGGSTLFVETSLRRPQDKDAKGDKDGSLEVTGQLGEVMKESARIAYTFARAFLMQHAPANDYLVTSHIHLHVPEGATPKDGPSAGCTIVTALLSLAMGRPVRQNLAMTGEVSLTGKILPVGGIKEKTIAAKRAGVTCIVLPAENKKDFYDLAAFITEGLEVHFVEHYREIFDIAFPDEQAEALAVER
B2: Mitochondrial import receptor subunit TOM40 (TOMM40) (natural protein)
chain: MGNVLAASSPPAGPPPPPAPALVGLPPPPPSPPGFTLPPLGGSLGAGTSTSRSSERTPGAATASASGAAEDGACGCLPNPGTFEECHRKCKELFPIQMEGVKLTVNKGLSNHFQVNHTVALSTIGESNYHFGVTYVGTKQLSPTEAFPVLVGDMDNSGSLNAQVIHQLGPGLRSKMAIQTQQSKFVNWQVDGEYRGSDFTAAVTLGNPDVLVGSGILVAHYLQSITPCLALGGELVYHRRPGEEGTVMSLAGKYTLNNWLATVTLGQAGMHATYYHKASDQLQVGVEFEASTRMQDTSVSFGYQLDLPKANLLFKGSVDSNWIVGATLEKKLPPLPLTLALGAFLNHRKNKFQCGFGLTIG

The molecules below were run against Apolipoprotein E4 (APOE4), overexpressed in transfected Huh7 cells (human) (UniProt P02649) (assay: co-IP; APOE precipitated with anti-APOE antibody (sc-13521) and Protein G Sepharose, overnight at 4 °C, from lysates of APOE3- and APOE4-transfected Huh7 cells; Western blot, target bands normalised to the APOE signal).
Chain of UniProt P02649 (P02649 19-317): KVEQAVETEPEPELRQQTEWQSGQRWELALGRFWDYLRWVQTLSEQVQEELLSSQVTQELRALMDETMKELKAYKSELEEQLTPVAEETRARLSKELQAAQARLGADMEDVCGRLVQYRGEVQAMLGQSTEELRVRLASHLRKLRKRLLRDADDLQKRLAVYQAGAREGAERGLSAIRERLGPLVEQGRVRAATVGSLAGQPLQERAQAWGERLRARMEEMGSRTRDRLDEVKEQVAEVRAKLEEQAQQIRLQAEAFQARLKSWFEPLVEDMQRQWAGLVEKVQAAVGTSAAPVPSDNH

Row | fold change of the target/APOE band against APOE3-transfected cells | Molecule
1 | 1.2 fold | Voltage-dependent anion-selective channel 1 (VDAC1) (from UniProt P21796 1-283) (natural protein)
2 | 2.11 fold | B1
3 | 1.29 fold | B2
